1 molecule from patent US20230212268A1 (UNM RAINFOREST INNOVATIONS, published 2023) can be followed below.

Experiment [1] concerns the target T1, recombinant SUDV glycoprotein (SUDV (Sudan ebolavirus), UniProt Q7T9D9 33-650).
T1 sequence: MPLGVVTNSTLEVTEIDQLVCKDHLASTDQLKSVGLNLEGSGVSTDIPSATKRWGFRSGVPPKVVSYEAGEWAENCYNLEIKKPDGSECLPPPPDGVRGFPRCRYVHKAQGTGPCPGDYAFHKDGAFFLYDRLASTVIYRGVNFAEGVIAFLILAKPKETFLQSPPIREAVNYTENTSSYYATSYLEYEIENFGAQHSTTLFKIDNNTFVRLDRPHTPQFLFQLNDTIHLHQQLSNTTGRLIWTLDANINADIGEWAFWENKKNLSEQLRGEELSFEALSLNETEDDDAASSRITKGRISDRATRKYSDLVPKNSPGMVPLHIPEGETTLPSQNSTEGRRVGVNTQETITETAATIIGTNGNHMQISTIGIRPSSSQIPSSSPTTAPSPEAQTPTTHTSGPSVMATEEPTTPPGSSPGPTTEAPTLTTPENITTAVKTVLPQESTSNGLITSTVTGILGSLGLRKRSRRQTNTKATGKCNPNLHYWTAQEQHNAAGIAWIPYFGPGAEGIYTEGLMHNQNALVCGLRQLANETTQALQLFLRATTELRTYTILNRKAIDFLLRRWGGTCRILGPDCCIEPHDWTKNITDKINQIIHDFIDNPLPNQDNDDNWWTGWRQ
Put plainly: ELISA dose-response fit, reference scFv22-1. Background: In an ELISA, binding on a coated surface is turned into a signal by an enzyme label.

The target in experiment [2] is T2, recombinant MARV glycoprotein (MARV (marburgvirus, Ravn), UniProt Q1PDC7 19-648).
T2 sequence: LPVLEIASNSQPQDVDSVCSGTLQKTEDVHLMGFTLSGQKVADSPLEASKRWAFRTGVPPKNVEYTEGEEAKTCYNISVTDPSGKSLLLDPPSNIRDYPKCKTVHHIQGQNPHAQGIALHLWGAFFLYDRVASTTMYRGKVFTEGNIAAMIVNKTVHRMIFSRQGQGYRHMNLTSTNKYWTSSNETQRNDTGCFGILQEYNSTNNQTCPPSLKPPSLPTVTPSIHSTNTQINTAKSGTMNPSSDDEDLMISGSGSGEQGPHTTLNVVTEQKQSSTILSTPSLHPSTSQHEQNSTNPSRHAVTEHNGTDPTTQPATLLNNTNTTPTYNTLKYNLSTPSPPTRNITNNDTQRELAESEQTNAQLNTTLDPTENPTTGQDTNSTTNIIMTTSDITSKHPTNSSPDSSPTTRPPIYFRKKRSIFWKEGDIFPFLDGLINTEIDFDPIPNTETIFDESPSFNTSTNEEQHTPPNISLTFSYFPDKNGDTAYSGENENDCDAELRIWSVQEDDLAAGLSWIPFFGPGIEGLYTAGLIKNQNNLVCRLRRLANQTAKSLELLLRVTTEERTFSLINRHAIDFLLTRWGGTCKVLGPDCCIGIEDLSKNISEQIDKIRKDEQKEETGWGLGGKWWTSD
Put plainly: ELISA dose-response fit, reference scFv22-1.

Experiment [3] concerns the target T3, recombinant TAFV glycoprotein (TAFV (Tai Forest virus), UniProt Q66810 33-650).
T3 sequence: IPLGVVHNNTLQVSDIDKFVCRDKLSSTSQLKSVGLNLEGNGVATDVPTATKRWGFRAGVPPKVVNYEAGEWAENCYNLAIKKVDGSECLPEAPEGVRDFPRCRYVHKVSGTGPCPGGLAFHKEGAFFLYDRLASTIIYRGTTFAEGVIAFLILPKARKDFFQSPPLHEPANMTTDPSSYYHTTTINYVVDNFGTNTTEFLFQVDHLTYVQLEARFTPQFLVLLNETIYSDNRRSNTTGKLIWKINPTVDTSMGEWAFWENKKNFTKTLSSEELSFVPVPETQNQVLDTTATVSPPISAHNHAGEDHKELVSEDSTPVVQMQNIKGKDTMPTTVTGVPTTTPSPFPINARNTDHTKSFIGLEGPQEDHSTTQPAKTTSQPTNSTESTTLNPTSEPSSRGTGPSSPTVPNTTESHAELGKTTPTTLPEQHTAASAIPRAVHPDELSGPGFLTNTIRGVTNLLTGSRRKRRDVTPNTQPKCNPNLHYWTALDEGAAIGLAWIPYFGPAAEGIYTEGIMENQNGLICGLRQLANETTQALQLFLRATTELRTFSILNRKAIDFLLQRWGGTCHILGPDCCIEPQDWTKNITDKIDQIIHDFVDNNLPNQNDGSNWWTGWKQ
Put plainly: ELISA dose-response fit, reference scFv22-1.

Experiment [4] has as its target T4, recombinant EBOV glycoprotein (EBOV (Zaire ebolavirus), UniProt Q05320 33-650).
T4 sequence: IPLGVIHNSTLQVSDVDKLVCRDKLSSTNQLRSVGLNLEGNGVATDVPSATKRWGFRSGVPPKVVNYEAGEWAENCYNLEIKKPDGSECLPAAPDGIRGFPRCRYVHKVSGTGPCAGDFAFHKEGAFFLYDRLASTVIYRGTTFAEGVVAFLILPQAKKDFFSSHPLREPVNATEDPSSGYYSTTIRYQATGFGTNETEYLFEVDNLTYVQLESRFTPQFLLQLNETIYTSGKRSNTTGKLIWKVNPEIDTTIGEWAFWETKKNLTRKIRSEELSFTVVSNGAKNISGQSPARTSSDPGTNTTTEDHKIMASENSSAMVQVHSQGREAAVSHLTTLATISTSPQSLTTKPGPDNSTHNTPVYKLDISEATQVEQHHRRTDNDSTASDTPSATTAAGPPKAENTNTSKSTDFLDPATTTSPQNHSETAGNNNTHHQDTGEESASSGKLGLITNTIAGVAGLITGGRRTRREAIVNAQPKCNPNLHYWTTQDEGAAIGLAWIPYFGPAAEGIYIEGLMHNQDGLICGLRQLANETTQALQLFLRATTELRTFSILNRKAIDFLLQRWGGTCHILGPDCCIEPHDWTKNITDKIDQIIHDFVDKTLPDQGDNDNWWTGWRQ
In words: ELISA dose-response fit, reference scFv22-1.

Experiment [5] deals with recombinant BDBV glycoprotein (BDBV (Bundibugyo ebolavirus)). Put plainly: ELISA dose response, GP coated.
Experiment [6] has the same target. In words: ELISA dose-response fit, reference scFv22-1.

B1: EbovGPscFv4-2 (scFv)
scFv: MAWSHPQFEKTGSGGAELVKSGASVKLSCTASGFNIKDDYMHWVKQRPEQGLEWIGWIDPENGDTEYASKFQGKATITADTSSNTAYLQLSSLTSEDTAVYYCTTYYYGSAWFAYWGQGTLVTVSAGGGGSGGGGSGGGGSGGGGSASLSVSVGETVTITCRASGNIHNYLAWYQQKQGKSPQLLVYNAKTLADGVPSRFSGSGSGTQYSLKINNLQPEDFGSYYCQHFWSTPYTFGGGTKLEIKRADAAPTVSIFPPSSEQLTSGGASVVCFLNNFTHCQELQQDECS
Turning to B1, the “fold affinity against scFv22-1” value is roughly 2 fold in experiment [1]; roughly 2 fold in experiment [2]; roughly 2 fold in experiment [3]; roughly 2 fold in experiment [4]; 2 fold in experiment [6]. Moreover, the EC50 (commonly the concentration needed to bring the measured effect to its halfway point) in experiment [5] is 8.19 µg/mL.
